From patent publication US10919943B2, “Mutant proteins enabling agrochemical control of plant gene expression” (The Regents of the University of California, priority 2016, dated 2021) come the findings set out here.

This test deals with HAB1. As to the kind of experiment: Yeast two hybrid of pBD-PYR1 site saturation mutants with pACT-HAB1 on 10 μM ABA, β-galactosidase staining. Format: cell-based, Arabidopsis. Details: key: x: Mutations in PYR1 that disrupt ABA-induced binding to PYR1 to HAB1. The conditions noted are these: S. cerevisiae Y190, 10 μM ABA; dead = lack of visible staining in comparison to wild type control. The text has this: To systematically identify mutations in PYR1 that disrupt its binding to HAB1, we utilized a collection of saturating mutations that contain all possible single amino acid substitutions in 24 conserved interface residues involved in binding HAB1, which was previously constructed for the purpose of engineering constitutively active ABA receptor variants (Mosquna et al., 2011). The interface residues previously mutagenized in this collection are the following: H60, F61, I62, K63, I84, S85, G86, L87, P88, A89, H115, R116, L117, P148, G150, N151, D154, D155, T156, M158, F159, T162, L166, K170. This set was made by mutagenizing a pBD-PYR1 template that encodes a GAL4-DNA binding domain fusion to PYR1, which can be used to assess receptor-HAB1 binding in S. cerevisiae strains co-transformed with pACT-HAB1, which expresses a GAL4 activation domain fusion to HAB1. Mutant pBD-PYR1 clones from the collection are maintained in S. cerevisiae strain Y190 co-transformed with pACT-HAB1. The test strains were spotted onto agar plates containing synthetic dextrose dropout media lacking leucine and tryptophan [SD (-Leu, -Trp)] medium supplemented with 10 μM ABA. After incubating the test plates at 30° C. for two days, colonies were chloroform lysed and stained to reveal […] expression levels and “dead” mutants were defined by lack of visible staining in comparison to a wild type control. This effort defined 237 mutations that disrupt ABA-induced binding of PYR1 to HAB1 (Table 1). Premade yeast drop out supplements (Clontech) were utilized in this and other examples for media preparation, amino acids and other standard chemicals were purchased from Sigma-Aldrich (USA). The naturally occurring (+)-ABA isomer was used in all experiments and purchased from Biosynth Ag (Switzerland).

B1: A89S: PYR1 mutant (protein, UniProt O49686 1-191, looked up, variant A89S)
Abscisic acid receptor PYR1: MPSELTPEERSELKNSIAEFHTYQLDPGSCSSLHAQRIHAPPELVWSIVRRFDKPQTYKHFIKSCSVEQNFEMRVGCTRDVIVISGLPSNTSTERLDILDDERRVTGFSIIGGEHRLTNYKSVTTVHRFEKENRIWTVVLESYVVDMPEGNSEDDTRMFADTVVKLNLQKLATVAEAMARNSGDGSGSQVT
As for B1, the “Mutations in PYR1 that disrupt ABA-induced binding to PYR1 to HAB1” value (from here on “Mutations”) is recorded as “x”.

B2: H115M: PYR1 mutant (protein, UniProt O49686 1-191, looked up, variant H115M)
Abscisic acid receptor PYR1: MPSELTPEERSELKNSIAEFHTYQLDPGSCSSLHAQRIHAPPELVWSIVRRFDKPQTYKHFIKSCSVEQNFEMRVGCTRDVIVISGLPANTSTERLDILDDERRVTGFSIIGGEMRLTNYKSVTTVHRFEKENRIWTVVLESYVVDMPEGNSEDDTRMFADTVVKLNLQKLATVAEAMARNSGDGSGSQVT
Turning to B2, the “Mutations” value was “x”.

B3: H115S: PYR1 mutant (protein, UniProt O49686 1-191, looked up, variant H115S)
Abscisic acid receptor PYR1: MPSELTPEERSELKNSIAEFHTYQLDPGSCSSLHAQRIHAPPELVWSIVRRFDKPQTYKHFIKSCSVEQNFEMRVGCTRDVIVISGLPANTSTERLDILDDERRVTGFSIIGGESRLTNYKSVTTVHRFEKENRIWTVVLESYVVDMPEGNSEDDTRMFADTVVKLNLQKLATVAEAMARNSGDGSGSQVT
On to B3, for which the “Mutations” value is “x”.

B4: H115P: PYR1 mutant (protein, UniProt O49686 1-191, looked up, variant H115P)
Abscisic acid receptor PYR1: MPSELTPEERSELKNSIAEFHTYQLDPGSCSSLHAQRIHAPPELVWSIVRRFDKPQTYKHFIKSCSVEQNFEMRVGCTRDVIVISGLPANTSTERLDILDDERRVTGFSIIGGEPRLTNYKSVTTVHRFEKENRIWTVVLESYVVDMPEGNSEDDTRMFADTVVKLNLQKLATVAEAMARNSGDGSGSQVT
In the case of B4, the “Mutations” value is given as “x”.

B5: H115R: PYR1 mutant (protein, UniProt O49686 1-191, looked up, variant H115R)
Abscisic acid receptor PYR1: MPSELTPEERSELKNSIAEFHTYQLDPGSCSSLHAQRIHAPPELVWSIVRRFDKPQTYKHFIKSCSVEQNFEMRVGCTRDVIVISGLPANTSTERLDILDDERRVTGFSIIGGERRLTNYKSVTTVHRFEKENRIWTVVLESYVVDMPEGNSEDDTRMFADTVVKLNLQKLATVAEAMARNSGDGSGSQVT
For the molecule B5, the “Mutations” value is given as “x”.

B6: A89I: PYR1 mutant (protein, UniProt O49686 1-191, looked up, variant A89I)
Abscisic acid receptor PYR1: MPSELTPEERSELKNSIAEFHTYQLDPGSCSSLHAQRIHAPPELVWSIVRRFDKPQTYKHFIKSCSVEQNFEMRVGCTRDVIVISGLPINTSTERLDILDDERRVTGFSIIGGEHRLTNYKSVTTVHRFEKENRIWTVVLESYVVDMPEGNSEDDTRMFADTVVKLNLQKLATVAEAMARNSGDGSGSQVT
In the case of B6, the “Mutations” value is on record as “x”.

B7: A89E: PYR1 mutant (protein, UniProt O49686 1-191, looked up, variant A89E)
Abscisic acid receptor PYR1: MPSELTPEERSELKNSIAEFHTYQLDPGSCSSLHAQRIHAPPELVWSIVRRFDKPQTYKHFIKSCSVEQNFEMRVGCTRDVIVISGLPENTSTERLDILDDERRVTGFSIIGGEHRLTNYKSVTTVHRFEKENRIWTVVLESYVVDMPEGNSEDDTRMFADTVVKLNLQKLATVAEAMARNSGDGSGSQVT
On to B7, for which the “Mutations” value was “x”.

B8: H115Q: PYR1 mutant (protein, UniProt O49686 1-191, looked up, variant H115Q)
Abscisic acid receptor PYR1: MPSELTPEERSELKNSIAEFHTYQLDPGSCSSLHAQRIHAPPELVWSIVRRFDKPQTYKHFIKSCSVEQNFEMRVGCTRDVIVISGLPANTSTERLDILDDERRVTGFSIIGGEQRLTNYKSVTTVHRFEKENRIWTVVLESYVVDMPEGNSEDDTRMFADTVVKLNLQKLATVAEAMARNSGDGSGSQVT
In the case of B8, the “Mutations” value is reported as “x”.

B9: A89T: PYR1 mutant (protein, UniProt O49686 1-191, looked up, variant A89T)
Abscisic acid receptor PYR1: MPSELTPEERSELKNSIAEFHTYQLDPGSCSSLHAQRIHAPPELVWSIVRRFDKPQTYKHFIKSCSVEQNFEMRVGCTRDVIVISGLPTNTSTERLDILDDERRVTGFSIIGGEHRLTNYKSVTTVHRFEKENRIWTVVLESYVVDMPEGNSEDDTRMFADTVVKLNLQKLATVAEAMARNSGDGSGSQVT
B9: the “Mutations” value is listed as “x”.

B10: A89K: PYR1 mutant (protein, UniProt O49686 1-191, looked up, variant A89K)
Abscisic acid receptor PYR1: MPSELTPEERSELKNSIAEFHTYQLDPGSCSSLHAQRIHAPPELVWSIVRRFDKPQTYKHFIKSCSVEQNFEMRVGCTRDVIVISGLPKNTSTERLDILDDERRVTGFSIIGGEHRLTNYKSVTTVHRFEKENRIWTVVLESYVVDMPEGNSEDDTRMFADTVVKLNLQKLATVAEAMARNSGDGSGSQVT
Regarding B10, the “Mutations” value is on record as “x”.

B11: A89Y: PYR1 mutant (protein, UniProt O49686 1-191, looked up, variant A89Y)
Abscisic acid receptor PYR1: MPSELTPEERSELKNSIAEFHTYQLDPGSCSSLHAQRIHAPPELVWSIVRRFDKPQTYKHFIKSCSVEQNFEMRVGCTRDVIVISGLPYNTSTERLDILDDERRVTGFSIIGGEHRLTNYKSVTTVHRFEKENRIWTVVLESYVVDMPEGNSEDDTRMFADTVVKLNLQKLATVAEAMARNSGDGSGSQVT
Take B11: the “Mutations” value is “x”.

B12: H115L: PYR1 mutant (protein, UniProt O49686 1-191, looked up, variant H115L)
Abscisic acid receptor PYR1: MPSELTPEERSELKNSIAEFHTYQLDPGSCSSLHAQRIHAPPELVWSIVRRFDKPQTYKHFIKSCSVEQNFEMRVGCTRDVIVISGLPANTSTERLDILDDERRVTGFSIIGGELRLTNYKSVTTVHRFEKENRIWTVVLESYVVDMPEGNSEDDTRMFADTVVKLNLQKLATVAEAMARNSGDGSGSQVT
Take B12: the “Mutations” value is listed as “x”.

B13: A89D: PYR1 mutant (protein, UniProt O49686 1-191, looked up, variant A89D)
Abscisic acid receptor PYR1: MPSELTPEERSELKNSIAEFHTYQLDPGSCSSLHAQRIHAPPELVWSIVRRFDKPQTYKHFIKSCSVEQNFEMRVGCTRDVIVISGLPDNTSTERLDILDDERRVTGFSIIGGEHRLTNYKSVTTVHRFEKENRIWTVVLESYVVDMPEGNSEDDTRMFADTVVKLNLQKLATVAEAMARNSGDGSGSQVT
B13: the “Mutations” value was “x”.

B14: A89F: PYR1 mutant (protein, UniProt O49686 1-191, looked up, variant A89F)
Abscisic acid receptor PYR1: MPSELTPEERSELKNSIAEFHTYQLDPGSCSSLHAQRIHAPPELVWSIVRRFDKPQTYKHFIKSCSVEQNFEMRVGCTRDVIVISGLPFNTSTERLDILDDERRVTGFSIIGGEHRLTNYKSVTTVHRFEKENRIWTVVLESYVVDMPEGNSEDDTRMFADTVVKLNLQKLATVAEAMARNSGDGSGSQVT
In the case of B14, the “Mutations” value is “x”.

B15: A89V: PYR1 mutant (protein, UniProt O49686 1-191, looked up, variant A89V)
Abscisic acid receptor PYR1: MPSELTPEERSELKNSIAEFHTYQLDPGSCSSLHAQRIHAPPELVWSIVRRFDKPQTYKHFIKSCSVEQNFEMRVGCTRDVIVISGLPVNTSTERLDILDDERRVTGFSIIGGEHRLTNYKSVTTVHRFEKENRIWTVVLESYVVDMPEGNSEDDTRMFADTVVKLNLQKLATVAEAMARNSGDGSGSQVT
Regarding B15, the “Mutations” value is “x”.

B16: H115T: PYR1 mutant (protein, UniProt O49686 1-191, looked up, variant H115T)
Abscisic acid receptor PYR1: MPSELTPEERSELKNSIAEFHTYQLDPGSCSSLHAQRIHAPPELVWSIVRRFDKPQTYKHFIKSCSVEQNFEMRVGCTRDVIVISGLPANTSTERLDILDDERRVTGFSIIGGETRLTNYKSVTTVHRFEKENRIWTVVLESYVVDMPEGNSEDDTRMFADTVVKLNLQKLATVAEAMARNSGDGSGSQVT
On to B16, for which the “Mutations” value is given as “x”.

B17: A89C: PYR1 mutant (protein, UniProt O49686 1-191, looked up, variant A89C)
Abscisic acid receptor PYR1: MPSELTPEERSELKNSIAEFHTYQLDPGSCSSLHAQRIHAPPELVWSIVRRFDKPQTYKHFIKSCSVEQNFEMRVGCTRDVIVISGLPCNTSTERLDILDDERRVTGFSIIGGEHRLTNYKSVTTVHRFEKENRIWTVVLESYVVDMPEGNSEDDTRMFADTVVKLNLQKLATVAEAMARNSGDGSGSQVT
On to B17, for which the “Mutations” value is given as “x”.

B18: A89H: PYR1 mutant (protein, UniProt O49686 1-191, looked up, variant A89H)
Abscisic acid receptor PYR1: MPSELTPEERSELKNSIAEFHTYQLDPGSCSSLHAQRIHAPPELVWSIVRRFDKPQTYKHFIKSCSVEQNFEMRVGCTRDVIVISGLPHNTSTERLDILDDERRVTGFSIIGGEHRLTNYKSVTTVHRFEKENRIWTVVLESYVVDMPEGNSEDDTRMFADTVVKLNLQKLATVAEAMARNSGDGSGSQVT
As to B18, the “Mutations” value is listed as “x”.

B19: H115A: PYR1 mutant (protein, UniProt O49686 1-191, looked up, variant H115A)
Abscisic acid receptor PYR1: MPSELTPEERSELKNSIAEFHTYQLDPGSCSSLHAQRIHAPPELVWSIVRRFDKPQTYKHFIKSCSVEQNFEMRVGCTRDVIVISGLPANTSTERLDILDDERRVTGFSIIGGEARLTNYKSVTTVHRFEKENRIWTVVLESYVVDMPEGNSEDDTRMFADTVVKLNLQKLATVAEAMARNSGDGSGSQVT
As to B19, the “Mutations” value was “x”.
